Where “and” joins values, the source holds several entries; their conditions need not be identical. Equal entries are not always repeated.

The target in test [1] is T1, His-tagged recombinant human ANG-2 (AcroBiosystems, Cat #AN2-H52H4) (human, UniProt O15123 275-496).
T1 construct: also called rhANG-2; rhANG-2-His; not shown: His tag
T1 sequence (looked up): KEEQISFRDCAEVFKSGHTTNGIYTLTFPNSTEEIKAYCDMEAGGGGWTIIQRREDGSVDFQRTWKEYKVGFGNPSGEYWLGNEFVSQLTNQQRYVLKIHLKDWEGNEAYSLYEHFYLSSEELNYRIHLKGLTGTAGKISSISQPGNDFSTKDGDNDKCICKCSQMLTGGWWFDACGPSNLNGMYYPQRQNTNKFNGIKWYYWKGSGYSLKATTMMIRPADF
Nature of the test: ELISA on coated human ANG-2.

For test [2], the target named is T2, rrVEGF165 (rabbit; Kingfisher Biotech_RP1025U-025) (Rabbit, UniProt P49151 27-190 (pig entry)).
T2 construct: Bought protein; also called Rabbit VEGF-A
T2 chain: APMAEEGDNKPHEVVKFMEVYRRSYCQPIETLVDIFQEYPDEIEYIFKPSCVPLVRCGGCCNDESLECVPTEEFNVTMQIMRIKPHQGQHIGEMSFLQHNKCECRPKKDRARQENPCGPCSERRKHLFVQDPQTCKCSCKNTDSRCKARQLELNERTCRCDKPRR
In words: ELISA on coated rabbit VEGF-A.

For test [3], the target named is T1, His-tagged recombinant human ANG-2 …. Nature of the test: ELISA EC50 on rhANG-2, against Faricimab. The method, then:
Donkey anti-human IgG Fcγ-HRP (Jackson ImmunoResearch Laboratories, Cat #709-035-098) was used for detection and visualized by TMB substrate. OD450 nm readings were measured by Victor 3 with PerkinElmer 1420 Multilabel Counter.
(ELISA stands for enzyme-linked immunosorbent assay.)

The target of test [4] is T3, Recombinant human ANG-2 (R&D Systems, Cat #623-AN-025/CF) (human, UniProt O15123 19-496, limits assumed).
T3 construct: also called rhANG-2
T3 sequence (looked up): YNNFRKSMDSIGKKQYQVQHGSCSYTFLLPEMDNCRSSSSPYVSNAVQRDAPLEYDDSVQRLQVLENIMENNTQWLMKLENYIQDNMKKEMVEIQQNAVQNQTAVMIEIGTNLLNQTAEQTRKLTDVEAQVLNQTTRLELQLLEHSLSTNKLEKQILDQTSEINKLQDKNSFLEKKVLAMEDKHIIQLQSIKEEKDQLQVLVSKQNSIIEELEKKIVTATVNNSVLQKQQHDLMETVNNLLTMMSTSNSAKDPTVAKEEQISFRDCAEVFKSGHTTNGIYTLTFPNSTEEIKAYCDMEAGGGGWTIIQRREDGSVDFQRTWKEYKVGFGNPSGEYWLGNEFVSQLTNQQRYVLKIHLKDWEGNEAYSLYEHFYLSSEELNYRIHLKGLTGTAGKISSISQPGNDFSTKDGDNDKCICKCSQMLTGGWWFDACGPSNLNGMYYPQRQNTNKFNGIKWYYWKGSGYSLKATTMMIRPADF
Nature of the test: ELISA on rhANG-2 by an independent team; average of three values.

The target in test [5] is T3, Recombinant human ANG-2 (R&D Systems, …). Nature of the test: ELISA; rhANG-2 (R&D) coated, anti-human IgG Fc-HRP detection. The source says:
The binding was detected by HRP-conjugated donkey anti-human IgG Fcγ antibody (Jackson ImmunoResearch Laboratories, Cat #709-035-098).

Test [6] addresses T4, Recombinant human VEGF165 (Peprotech, Cat #100-20) (human, UniProt P15692-4 27-191).
T4 construct: Bought protein; also called rhVEGF165; rh VEGF165
In words: competition ELISA; rhVEGF165 coated, competitor biotinylated rhVEGF R2/KDR. How it is done: (§1) The mixture was added to ELISA binding plates which contained rhVEGF₁₆₅ coating. […] The receptor binding was detected by HRP-conjugated streptavidin (Jackson ImmunoResearch Laboratories, Cat #016-030-084) and visualized by TMB substrate.

In test [7] the target is T1, His-tagged recombinant human ANG-2 …. Nature of the test: competition ELISA; His-tagged rhANG-2 in solution, competitor coated rhTie-2-Fc.
Test [8] has as its target T4, Recombinant human VEGF165 (Peprotech, …). In words: ELISA on rhVEGF165; biotinylated anti-VpreB antibody and streptavidin-HRP detection.
The target is the same in test [9]. In words: ELISA; rhVEGF165 coated at 1 ug/mL, anti-human IgG Fc-HRP detection (RO-101_Sample 1). The method, then:
Donkey anti-human IgG Fcγ-HRP (Jackson ImmunoResearch Laboratories, Cat #709-035-098) was used for detection and visualized by TMB substrate. OD450 nm readings were measured by Victor 3 (PerkinElmer 1420 Multilabel Counter).

Test [10] has as its target T1, His-tagged recombinant human ANG-2 …. In words: competition ELISA; IC50 ratio against Faricimab for inhibition of ANG-2-Tie-2 binding.
For test [11], the target named is T4, Recombinant human VEGF165 (Peprotech, …). Nature of the test: competition ELISA; IC50 ratio against Faricimab for inhibition of VEGF165-VEGF R2/KDR binding. The method, then: as §1
Test [12] has as its target T5, rhVEGF-C (AcroBio_VEC-H4225) (human, UniProt P49767 103-227, limits assumed).
T5 construct: domain: PDGF domain; Bought protein; not shown: His tag
T5 sequence (looked up): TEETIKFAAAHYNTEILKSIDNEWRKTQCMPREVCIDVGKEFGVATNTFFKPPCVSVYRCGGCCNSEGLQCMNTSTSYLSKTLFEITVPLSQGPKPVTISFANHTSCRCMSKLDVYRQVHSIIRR
Nature of the test: ELISA: rhVEGF-C_AcroBio coated at 1 ug/mL, RO-101_Sample 1 titrated, detected with anti-human IgG Fc-gamma-HRP. How it is done: Different target proteins were used to coat Corning 9017 medium binding plates at 1 μg/mL and 100 μl per well. Donkey anti-human IgG Fcγ-HRP was used for detection. OD450 nm readings were measured by Victor 3.

B1: RO-101 VEGF/ANG-2 bispecific surrobody (bispecific antibody, human IgG1, L234A L235A)
heavy 1: not shown
heavy 2: EVQLVESGGGLVKPGGSLRLSCAASGFTFSSYGMHWVRQAPGKGLEWVAGISADSGDKNYADSVKGRFTISRDNAKNSLYLQMNSLRAEDTAVYYCAKEFISWIYTFDYLDYWGQGTLVTVSSASTKGPSVFPLAPSSKSTSGGTAALGCLVKDYFPEPVTVSWNSGALTSGVHTFPAVLQSSGLYSLSSVVTVPSSSLGTQTYICNVNHKPSNTKVDKKVEPKSCDKTHTCPPCPAPEAAGGPSVFLFPPKPKDTLMISRTPEVTCVVVDVSHEDPEVKFNWYVDGVEVHNAKTKPREEQYNSTYRVVSVLTVLHQDWLNGKEYKCKVSNKALPAPIEKTISKAKGQPREPQVCTLPPSRDELTKNQVSLSCAVKGFYPSDIAVEWESNGQPENNYKTTPPVLDSDGSFFLVSKLTVDKSRWQQGNVFSCSVMHEALHNHYTQKSLSLSPG
light: QPVLHQPPAMSSALGTTIRLTCTLRNDHDIGVYSVYWYQQRPGHPPRFLLRYFSQSDKSQGPQVPPRFSGSKDVARNRGYLSISELQPEDEAMYYCAMGARSSVTHVFGSGTQLTVLSQPKATPSVTLFPPSSEELQANKATLVCLMNDFYPGILTVTWKADGTPITQGVEMTTPSKQSNNKYAASSYLSLTPEQWRSRRSYSCQVMHEGSTVEKTVAPAECS
notes: Format SgG1; also called Sample 1
For the molecule B1, the concentration giving a half-maximal response (EC50) (commonly the concentration at which the effect is half-maximal) was 0.007 nM in test [1]; 0.0334 nM in test [2]; 0.0536 nM and 0.0498 nM and 0.0449 nM in test [5]; 0.0057 nM in [8]; 0.0135 nM in test [9]. Besides, in [3], the “RO-101/Faricimab Fold” value was 53 fold. The “average EC50” value in [4] worked out at 0.0491 nM. Moreover, the 50% inhibitory concentration (IC50) (as a rule, the concentration needed to halve the response being measured) in test [6] stood at 1.99 nM; in [7], 0.787 nM. Besides, the results for the Fold in test [10] and in test [11] were 17.2 fold and 3.25 fold, respectively. Also, the binding result in test [12] was “no binding (tested: 100 nM (Log(nM) 2))”.

For the origin of these results see US20250250330A1 (REVOPSIS THERAPEUTICS, published 2025).
